Measurements taken from US20190153096A1 (COVAGEN, published 2019).

Target: T1, Human C1q (EMD Millipore) (human, UniProt P02745 23-245; P02746 28-253; P02747 29-245)
T1 construct: Bought protein; the three subunits are added from general knowledge
Experiment: SPR (BIAcore), antibody immobilised on the chip, human C1q injected at 3.125-200 nM
Procedure: Antibodies were coated onto a CMS chip via amine coupling at coating density of 5000 RU Human C1q (EMD Millipore) was injected in running buffer (PBS pH7.4, 0.05% TWEEN-20) at 200 nM and three-fold serial dilutions thereof at a flow rate of 30 μl/min. Binding was recorded, and KD was determined by curve fitting using the BIAcore software using a steady-state affinity model.

T1 sequence (P02745 23-245 limits assumed, chain 1 of 3): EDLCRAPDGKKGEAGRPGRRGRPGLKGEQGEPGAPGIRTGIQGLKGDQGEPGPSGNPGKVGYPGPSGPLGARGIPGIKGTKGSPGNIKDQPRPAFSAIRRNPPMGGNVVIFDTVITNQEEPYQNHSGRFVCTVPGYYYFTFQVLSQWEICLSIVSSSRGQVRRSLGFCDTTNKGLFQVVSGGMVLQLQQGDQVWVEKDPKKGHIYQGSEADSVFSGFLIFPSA
T1 sequence (P02746 28-253 limits assumed, chain 2 of 3): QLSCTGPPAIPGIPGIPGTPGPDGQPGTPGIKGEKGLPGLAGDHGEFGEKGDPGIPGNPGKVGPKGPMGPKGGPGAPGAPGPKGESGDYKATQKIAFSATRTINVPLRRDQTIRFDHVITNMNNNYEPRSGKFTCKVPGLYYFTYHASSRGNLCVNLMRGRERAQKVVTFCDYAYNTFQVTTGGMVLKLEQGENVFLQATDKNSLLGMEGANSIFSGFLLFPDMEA
T1 sequence (P02747 29-245 limits assumed, chain 3 of 3): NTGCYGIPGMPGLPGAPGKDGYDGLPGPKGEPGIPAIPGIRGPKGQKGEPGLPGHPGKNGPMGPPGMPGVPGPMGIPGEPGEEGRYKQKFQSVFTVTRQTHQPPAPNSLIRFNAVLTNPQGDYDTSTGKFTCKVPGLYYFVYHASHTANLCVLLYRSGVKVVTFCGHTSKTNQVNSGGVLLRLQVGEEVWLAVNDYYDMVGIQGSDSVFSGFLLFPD

binding result: no binding (tested: 200 nM)
B1: mAb1 DANAPA IgG1 (antibody)
heavy: QVQLQQSGAELARPGASVKMSCKASGYTFTRSTMHWVKQRPGQGLEWIGYINPSSAYTNYNQKFKDKATLTADKSSSTAYMQLSSLTSEDSAVYYCASPQVHYDYNGFPYWGQGTLVTVSAASTKGPSVFPLAPSSKSTSGGTAALGCLVKDYFPEPVTVSWNSGALTSGVHTFPAVLQSSGLYSLSSVVTVPSSSLGTQTYICNVNHKPSNTKVDKKVEPKSCDKTHTCPPCPAPELLGGPSVFLFPPKPKDTLMISRTPEVTCVVVAVSHEDPEVKFNWYVDGVEVHNAKTKPREEQYASTYRVVSVLTVLHQDWLNGKEYKCKVSNKALAAPIEKTISKAKGQPREPQVYTLPPSREEMTKNQVSLTCLVKGFYPSDIAVEWESNGQPENNYKTTPPVLDSDGSFFLYSKLTVDKSRWQQGNVFSCSVMHEALHNHYTQKSLSLSPGK
light: QVVLTQSPAIMSAFPGEKVTMTCSASSSVSYMNWYQQKSGTSPKRWIYDSSKLASGVPARFSGSGSGTSYSLTISSMETEDAATYYCQQWSRNPPTFGGGTKLQITRTVAAPSVFIFPPSDEQLKSGTASVVCLLNNFYPREAKVQWKVDNALQSGNSQESVTEQDSKDSTYSLSSTLTLSKADYEKHKVYACEVTHQGLSSPVTKSFNRGEC
notes: mAb1 with D265A, N297A, P329A (EU); also called DANAPA Fc mutated mAb1
